According to patent US20180327500A1 (SYMPHOGEN A S, published 2018):

Assays:
Test in all cases: flow cytometry on transfected HEK293 cells;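 also: antibodies applied at 50 µg/ml, binding called specific when fluorescence exceeds the mean signal on a negative control chicken or mouse MET construct plus four SD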
[1] = target: T1, Mouse Blade 1-3
T1 construct: human/mouse chimera on transfected HEK293 cells; also called AA 25-233
Description: (§1) Cut-off values defined as the average fluorescence signal of all antibodies tested at 50 μg/ml to the negative control chicken or mouse MET construct+four standard deviations were employed to discriminate background binding from specific binding for the domain exchange or blade exchange constructs.
T1 MET ECD-SV5-GPI fusion: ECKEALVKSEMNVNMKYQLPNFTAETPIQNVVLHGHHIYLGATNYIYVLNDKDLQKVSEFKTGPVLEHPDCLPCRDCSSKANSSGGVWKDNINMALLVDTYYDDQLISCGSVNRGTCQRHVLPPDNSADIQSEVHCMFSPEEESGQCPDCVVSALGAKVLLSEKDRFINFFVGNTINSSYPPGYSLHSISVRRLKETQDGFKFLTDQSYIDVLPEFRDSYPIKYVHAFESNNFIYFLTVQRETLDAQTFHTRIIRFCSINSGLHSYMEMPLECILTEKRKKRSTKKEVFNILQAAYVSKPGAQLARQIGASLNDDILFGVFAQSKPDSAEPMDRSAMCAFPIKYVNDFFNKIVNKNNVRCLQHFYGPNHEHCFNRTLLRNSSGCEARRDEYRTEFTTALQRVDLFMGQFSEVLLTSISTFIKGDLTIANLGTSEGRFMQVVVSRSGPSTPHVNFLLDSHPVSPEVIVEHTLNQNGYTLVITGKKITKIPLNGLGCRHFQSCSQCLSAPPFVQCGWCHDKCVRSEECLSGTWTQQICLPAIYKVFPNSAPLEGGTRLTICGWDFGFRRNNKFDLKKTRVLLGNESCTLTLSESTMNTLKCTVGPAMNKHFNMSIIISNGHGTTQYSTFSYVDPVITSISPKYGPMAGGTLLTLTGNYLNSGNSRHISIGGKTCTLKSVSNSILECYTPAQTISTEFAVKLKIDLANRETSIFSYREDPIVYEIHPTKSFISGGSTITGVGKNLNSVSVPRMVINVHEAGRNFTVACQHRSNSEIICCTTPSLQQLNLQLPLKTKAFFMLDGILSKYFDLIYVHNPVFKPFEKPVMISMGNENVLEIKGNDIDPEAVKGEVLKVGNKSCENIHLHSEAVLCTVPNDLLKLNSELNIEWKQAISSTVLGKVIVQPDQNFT

[2] = target: T2, Mouse Blade 1-7
T2 construct: human/mouse chimera on transfected HEK293 cells; also called AA 25-513
Description: as §1
T2 MET ECD-SV5-GPI fusion: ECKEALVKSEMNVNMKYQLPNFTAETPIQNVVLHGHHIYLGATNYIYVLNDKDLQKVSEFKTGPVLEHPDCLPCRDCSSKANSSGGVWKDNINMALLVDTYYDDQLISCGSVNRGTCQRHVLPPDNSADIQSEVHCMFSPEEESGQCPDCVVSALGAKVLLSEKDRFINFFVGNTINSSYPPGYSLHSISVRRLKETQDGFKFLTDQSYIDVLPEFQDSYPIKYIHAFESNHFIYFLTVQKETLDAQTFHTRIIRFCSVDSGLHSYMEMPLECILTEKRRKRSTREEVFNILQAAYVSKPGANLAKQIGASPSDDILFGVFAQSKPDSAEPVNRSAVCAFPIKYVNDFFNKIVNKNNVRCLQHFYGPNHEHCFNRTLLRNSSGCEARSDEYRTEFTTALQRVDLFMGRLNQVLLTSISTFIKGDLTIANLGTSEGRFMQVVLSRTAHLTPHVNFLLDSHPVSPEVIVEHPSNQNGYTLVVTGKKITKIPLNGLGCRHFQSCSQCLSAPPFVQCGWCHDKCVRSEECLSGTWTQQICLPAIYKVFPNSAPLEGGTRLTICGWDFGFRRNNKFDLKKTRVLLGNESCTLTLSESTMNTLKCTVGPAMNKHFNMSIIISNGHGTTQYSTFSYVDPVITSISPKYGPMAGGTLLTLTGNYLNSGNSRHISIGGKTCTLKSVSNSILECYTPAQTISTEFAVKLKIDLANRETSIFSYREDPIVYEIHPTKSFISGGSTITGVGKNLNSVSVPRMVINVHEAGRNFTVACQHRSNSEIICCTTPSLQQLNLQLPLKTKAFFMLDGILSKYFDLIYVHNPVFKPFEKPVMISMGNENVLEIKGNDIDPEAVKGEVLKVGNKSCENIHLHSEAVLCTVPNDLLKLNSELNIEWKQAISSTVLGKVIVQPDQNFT

[3] = target: T3, LS4
T3 construct: human/mouse chimera on transfected HEK293 cells; also called AA 25-371
Description: as §1
T3 MET ECD-SV5-GPI fusion: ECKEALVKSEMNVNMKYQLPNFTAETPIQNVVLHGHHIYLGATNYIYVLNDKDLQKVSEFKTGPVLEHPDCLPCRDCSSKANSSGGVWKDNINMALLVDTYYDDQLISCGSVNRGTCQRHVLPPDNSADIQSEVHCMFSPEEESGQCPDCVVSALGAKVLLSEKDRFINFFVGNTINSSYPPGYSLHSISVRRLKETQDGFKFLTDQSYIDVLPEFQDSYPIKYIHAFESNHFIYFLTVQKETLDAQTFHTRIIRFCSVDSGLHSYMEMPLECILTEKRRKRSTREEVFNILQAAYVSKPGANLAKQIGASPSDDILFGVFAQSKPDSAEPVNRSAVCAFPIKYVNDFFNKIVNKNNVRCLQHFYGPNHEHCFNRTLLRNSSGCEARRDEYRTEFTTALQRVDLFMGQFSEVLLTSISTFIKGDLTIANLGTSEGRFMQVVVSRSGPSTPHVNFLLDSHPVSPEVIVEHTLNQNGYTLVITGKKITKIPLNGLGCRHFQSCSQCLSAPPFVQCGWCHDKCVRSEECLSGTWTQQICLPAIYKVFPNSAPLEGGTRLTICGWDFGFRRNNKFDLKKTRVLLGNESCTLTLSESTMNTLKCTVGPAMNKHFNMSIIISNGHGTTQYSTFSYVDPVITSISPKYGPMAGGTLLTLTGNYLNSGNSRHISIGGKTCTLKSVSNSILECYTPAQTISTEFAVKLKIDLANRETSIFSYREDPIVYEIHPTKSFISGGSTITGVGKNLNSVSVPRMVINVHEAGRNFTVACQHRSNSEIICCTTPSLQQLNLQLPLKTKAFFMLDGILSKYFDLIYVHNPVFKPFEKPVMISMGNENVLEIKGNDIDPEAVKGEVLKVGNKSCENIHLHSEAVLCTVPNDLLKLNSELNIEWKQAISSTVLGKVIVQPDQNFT

Measured: binding result

B1: humanized antibody 9338 (antibody, human IgG1, kappa, V domains shown)
VH: QVQLVQSGAEVKKPGSSVKVSCKASGYTFTSYWMHWVRQAPGQGLEWMGYINPSSGHIENNQKFKDRVTITADKSTSTAYMELSSLRSEDTAVYYCARGRFAYWGQGTLVTVSS
VL: EIVLTQSPATLSLSPGERATLSCSASSSVSSGYLYWYQQKPGQAPRLLIYSTSNLASGIPARFSGSGSGTDFTLTISSLEPEDFAVYYCHQWSSYPFTFGSGTKLEIKR
notes: also called Hu9338; hu9338
no binding (tested: 50 µg/ml): all assays above

B2: humanized antibody 9006 (antibody, human IgG1, kappa, V domains shown)
VH: QVQLVQSGSELKKPGASVKVSCKASGYTFTNFRMNWVKQAPGQGLKWMGWINTYTGEPTYVDDLKGRFVFSLDTSVSTAYLQISSLKAEDTAVYYCARKGIARAMDYWGQGTTVTVSS
VL: DIVMTQSPDSLAVSLGERATINCKSSQSLLDSGNQKNYLAWYQQKPGQPPKLLIFGASTRESGVPDRFSGSGSGTDFTLTISSLQAEDVAVYYCQNDHSYPYTFGQGTKLEIKR
notes: also called Hu9006; hu9006
no binding (tested: 50 µg/ml): all assays above
